These are literature values, as cited in PMC9256959.

The target of the data set is AMH mature ligand mature domain (Homo sapiens) (UniProt P03971).

Usually Kd stands for the concentration at which binding is half-saturated. “AMH prodomain prodomain (from UniProt P03971)”: the Kd is 0.4 pM.
